Measurements from patent US20150344570A1 (published 2015).

T1: FcγRIIa H (FcgRIIa type H, His at position 131), extracellular domain with C-terminal His tag (human, UniProt P12318 34-217)
T1 construct: extracellular domain; also called 2aH; FcgRIIa H; not shown: His tag at the C terminus
T1 sequence (looked up): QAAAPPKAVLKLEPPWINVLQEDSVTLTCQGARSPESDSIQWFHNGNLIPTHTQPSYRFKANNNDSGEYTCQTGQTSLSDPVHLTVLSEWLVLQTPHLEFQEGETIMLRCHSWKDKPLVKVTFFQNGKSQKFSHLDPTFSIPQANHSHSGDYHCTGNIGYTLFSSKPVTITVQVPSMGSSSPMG

T2: FcγRIIb, extracellular domain with C-terminal His tag (human, UniProt P31994 43-217)
T2 construct: extracellular domain; also called 2b; FcgRIIb; not shown: His tag at the C terminus
T2 sequence (looked up): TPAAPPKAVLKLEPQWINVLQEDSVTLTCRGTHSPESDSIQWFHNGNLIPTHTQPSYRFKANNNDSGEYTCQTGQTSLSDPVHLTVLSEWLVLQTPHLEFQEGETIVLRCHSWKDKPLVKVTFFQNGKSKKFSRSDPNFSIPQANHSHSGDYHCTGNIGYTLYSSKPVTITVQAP


Columns and labels:
[1] = target: T1, FcγRIIa H (FcgRIIa type H, His at …); assay: SPR (Biacore), relative binding, GpH7-A5/GpH7-B3/GpL16-k0 = 100
[2] = target: T2, FcγRIIb, extracellular domain with …; assay: as above

Binder	He/Con_2aH [1]	He/Con_2b [2]
GpH7-A5/GpH7-B3 variant A330_01G/GpL16-k0 (antibody, human IgG1, kappa, He Ab; alteration in one H chain only; also called He Ab) heavy 1: not shown heavy 2: not shown light: DIVMTQSPLSLPVTPGEPASISCQASESLVHSNRNTYLHWYLQKPGQSPQLLIYKVSNRFSGVPDRFSGSGSGTDFTLKISRVEAEDVGVYYCSQNTHVPPTFGQGTKVEIERTVAAPSVFIFPPSDEQLKSGTASVVCLLNNFYPREAKVQWKVDNALQSGNSQESVTEQDSKDSTYSLSSTLTLSKADYEKHKVYACEVTHQGLSSPVTKSFNRGEC	99 % of control	104 % of control
GpH7-A5/GpH7-B3 variant K326_20W/GpL16-k0 (antibody, human IgG1, kappa, He Ab; alteration in one H chain only; also called He Ab) heavy 1: not shown heavy 2: not shown light: DIVMTQSPLSLPVTPGEPASISCQASESLVHSNRNTYLHWYLQKPGQSPQLLIYKVSNRFSGVPDRFSGSGSGTDFTLKISRVEAEDVGVYYCSQNTHVPPTFGQGTKVEIERTVAAPSVFIFPPSDEQLKSGTASVVCLLNNFYPREAKVQWKVDNALQSGNSQESVTEQDSKDSTYSLSSTLTLSKADYEKHKVYACEVTHQGLSSPVTKSFNRGEC	83.3 % of control	148 % of control
GpH7-A5/GpH7-B3 variant K334_10E/GpL16-k0 (antibody, human IgG1, kappa, He Ab; alteration in one H chain only; also called He Ab) heavy 1: not shown heavy 2: not shown light: DIVMTQSPLSLPVTPGEPASISCQASESLVHSNRNTYLHWYLQKPGQSPQLLIYKVSNRFSGVPDRFSGSGSGTDFTLKISRVEAEDVGVYYCSQNTHVPPTFGQGTKVEIERTVAAPSVFIFPPSDEQLKSGTASVVCLLNNFYPREAKVQWKVDNALQSGNSQESVTEQDSKDSTYSLSSTLTLSKADYEKHKVYACEVTHQGLSSPVTKSFNRGEC	98.2 % of control	114 % of control
GpH7-A5/GpH7-B3 variant K334_02A/GpL16-k0 (antibody, human IgG1, kappa, He Ab; alteration in one H chain only; also called He Ab) heavy 1: not shown heavy 2: not shown light: DIVMTQSPLSLPVTPGEPASISCQASESLVHSNRNTYLHWYLQKPGQSPQLLIYKVSNRFSGVPDRFSGSGSGTDFTLKISRVEAEDVGVYYCSQNTHVPPTFGQGTKVEIERTVAAPSVFIFPPSDEQLKSGTASVVCLLNNFYPREAKVQWKVDNALQSGNSQESVTEQDSKDSTYSLSSTLTLSKADYEKHKVYACEVTHQGLSSPVTKSFNRGEC	97 % of control	108 % of control
GpH7-A5/GpH7-B3 variant K326_15Y/GpL16-k0 (antibody, human IgG1, kappa, He Ab; alteration in one H chain only; also called He Ab) heavy 1: not shown heavy 2: not shown light: DIVMTQSPLSLPVTPGEPASISCQASESLVHSNRNTYLHWYLQKPGQSPQLLIYKVSNRFSGVPDRFSGSGSGTDFTLKISRVEAEDVGVYYCSQNTHVPPTFGQGTKVEIERTVAAPSVFIFPPSDEQLKSGTASVVCLLNNFYPREAKVQWKVDNALQSGNSQESVTEQDSKDSTYSLSSTLTLSKADYEKHKVYACEVTHQGLSSPVTKSFNRGEC	98.3 % of control	159 % of control

Now from value to binder:

He/Con_2aH [1]	He/Con_2b [2]	Binder
85.7 % of control	137 % of control	GpH7-A5/GpH7-B3 variant A330_05P/GpL16-k0 (antibody, human IgG1, kappa, He Ab; alteration in one H chain only; also called He Ab) heavy 1: not shown heavy 2: not shown light: DIVMTQSPLSLPVTPGEPASISCQASESLVHSNRNTYLHWYLQKPGQSPQLLIYKVSNRFSGVPDRFSGSGSGTDFTLKISRVEAEDVGVYYCSQNTHVPPTFGQGTKVEIERTVAAPSVFIFPPSDEQLKSGTASVVCLLNNFYPREAKVQWKVDNALQSGNSQESVTEQDSKDSTYSLSSTLTLSKADYEKHKVYACEVTHQGLSSPVTKSFNRGEC
97.9 % of control	119 % of control	GpH7-A5/GpH7-B3 variant K326_16H/GpL16-k0 (antibody, human IgG1, kappa, He Ab; alteration in one H chain only; also called He Ab) heavy 1: not shown heavy 2: not shown light: DIVMTQSPLSLPVTPGEPASISCQASESLVHSNRNTYLHWYLQKPGQSPQLLIYKVSNRFSGVPDRFSGSGSGTDFTLKISRVEAEDVGVYYCSQNTHVPPTFGQGTKVEIERTVAAPSVFIFPPSDEQLKSGTASVVCLLNNFYPREAKVQWKVDNALQSGNSQESVTEQDSKDSTYSLSSTLTLSKADYEKHKVYACEVTHQGLSSPVTKSFNRGEC
97.6 % of control	105 % of control	GpH7-A5/GpH7-B3 variant K334_05P/GpL16-k0 (antibody, human IgG1, kappa, He Ab; alteration in one H chain only; also called He Ab) heavy 1: not shown heavy 2: not shown light: DIVMTQSPLSLPVTPGEPASISCQASESLVHSNRNTYLHWYLQKPGQSPQLLIYKVSNRFSGVPDRFSGSGSGTDFTLKISRVEAEDVGVYYCSQNTHVPPTFGQGTKVEIERTVAAPSVFIFPPSDEQLKSGTASVVCLLNNFYPREAKVQWKVDNALQSGNSQESVTEQDSKDSTYSLSSTLTLSKADYEKHKVYACEVTHQGLSSPVTKSFNRGEC
